This passage reports EC50 results from US20230078173A1.

The assay deals with recombinant human PD-L1-mFc fusion protein (human) (UniProt Q9NZQ7). In words: ELISA, human PD-L1-mFc immobilised (1 µg/mL), anti-human kappa-HRP detection.
recombinant human PD-L1-mFc fusion protein (human), sequence (Q9NZQ7 19-238): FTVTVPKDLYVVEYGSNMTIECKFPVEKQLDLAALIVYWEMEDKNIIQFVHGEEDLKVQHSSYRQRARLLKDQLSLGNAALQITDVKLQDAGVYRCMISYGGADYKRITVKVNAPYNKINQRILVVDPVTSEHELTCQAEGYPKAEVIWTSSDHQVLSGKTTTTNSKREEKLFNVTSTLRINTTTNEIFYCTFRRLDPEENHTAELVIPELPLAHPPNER

One may read the EC50 as the midpoint of the concentration-response curve. Take Avelumab/TGFβR (antibody): the EC50 was 0.107 nM.
